Test results from the supplement of paper PMC9732359.
± gives the uncertainty stated by the source.

Assay: protein stability index of a GFP-peptide fusion (yeast GPS) (PSI 1-4); higher = more stable; sorted into four equal gates, so the index is relative within each strain
Procedure, shortened: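 Each library plasmid carries Cherry plus GFP with a tiled 17-residue yeast protein peptide fused downstream, and the pooled library was carried in yeast. Mid-log cultures in leucine-free medium were sorted into four equal gates by GFP/Cherry ratio. Reads from Illumina sequencing of PCR-amplified plasmids from each gate were assigned to strains by barcodes. Per peptide, the protein stability index was computed as the summed products of gate read frequency and gate number.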

Row | Sequence | protein stability index (doa10∆) | protein stability index (pdr5∆) | protein stability index (san1∆) | protein stability index (ubr1∆)
1 | TVPELEIPTQIYRTTRQ [ARP9] | 2.39 ± 0.076 | 2.8 ± 0.066 | 2.35 ± 0.08 | 2.83 ± 0.067
2 | VLIANDVDPIELVVFLP [RPL8A] | 2.42 ± 0.24 | 2.85 ± 0.077 | 3.13 ± 0.087 | 3 ± 0.058
3 | QRSNISTAIKSLVALGI [CDC53] | 1.86 ± 0.047 | 2.82 ± 0.054 | 2.82 ± 0.049 | 2.48 ± 0.037
4 | LIIDDPSKGQSLSKISQ [RPP1] | 2.77 ± 0.07 | 2.81 ± 0.063 | 3.04 ± 0.055 | 3.02 ± 0.056
5 | ANDFQLTIVTCKQFPKL [SRB8] | 1.83 ± 0.047 | 1.96 ± 0.041 | 1.82 ± 0.073 | 1.82 ± 0.034
6 | SRGESDDSLNRLAQNDG [RPS21A] | 2.72 ± 0.19 | 2.9 ± 0.14 |  | 
7 | LYNFLHKYVLTLQLYMV [RGR1] | 2.04 ± 0.058 | 1.43 ± 0.042 | 1.78 ± 0.13 | 1.51 ± 0.039
8 | LASAIASGLLRAYLSHS [CSN12] | 1.85 ± 0.045 | 1.5 ± 0.052 | 1.62 ± 0.071 | 1.4 ± 0.054
9 | YDRATLTQLLSMMSDGI [RPO31] | 2.29 ± 0.062 | 2.44 ± 0.053 | 2.56 ± 0.054 | 1.66 ± 0.038
10 | PSKVSKIDSHVVLSFSG [PRE6] | 1.71 ± 0.062 | 1.77 ± 0.058 | 1.74 ± 0.12 | 1.87 ± 0.057
11 | TFANPNRTFTDPPFRIE [TAF14] | 2.35 ± 0.078 | 2.76 ± 0.075 | 2.7 ± 0.094 | 2.27 ± 0.039
12 | ETESSVSNNEANTPSIP [SWI3] | 3.09 ± 0.053 | 3.12 ± 0.069 | 3.11 ± 0.054 | 3.15 ± 0.054
13 | PLLESFITFSLDDWISI [IRR1] | 3.04 ± 0.078 | 2.46 ± 0.063 | 2.5 ± 0.054 | 2.54 ± 0.052
14 | NTPLVGAAFKVISNLVP [YJL039C/NUP192] | 1.96 ± 0.081 | 2.08 ± 0.095 | 2.73 ± 0.16 | 2.47 ± 0.1
15 | DATNTSYKMIQLDAYGE [SWP82] | 3.29 ± 0.087 | 3.39 ± 0.077 | 3.25 ± 0.057 | 3.16 ± 0.05
16 | YLDQHKRTRLESLKNLN [SMC3] | 2.11 ± 0.097 | 2.23 ± 0.083 | 1.7 ± 0.098 | 2.58 ± 0.21
17 | FEKDLMAYFDENLNRNW [BRN1] | 2.93 ± 0.059 | 3.27 ± 0.063 | 3.14 ± 0.056 | 3.17 ± 0.057
18 | IYGVEWLIEGKLYVDAV [YDL116W/NUP84] |  | 1.2 ± 0.082 |  | 
19 | NVTSFMPFWKFFMKNFP [SRB8] | 1.47 ± 0.053 | 1.63 ± 0.046 | 1.43 ± 0.068 | 1.35 ± 0.041
20 | DVTAIQTWSYLSLYSTD [ECM29] | 1.52 ± 0.038 | 1.91 ± 0.036 | 1.9 ± 0.055 | 1.92 ± 0.036
21 | LLGNCYSLRLINKEIFH [SRB8] | 1.79 ± 0.069 | 1.46 ± 0.094 | 1.46 ± 0.17 | 1.36 ± 0.073
22 | GLHPFEVAQLGSLACDT [RPB4] | 1.9 ± 0.15 | 2.25 ± 0.18 |  | 2.33 ± 0.08
23 | DLKIEKLVLNISVGESG [RPL11A] | 2.81 ± 0.12 | 2.66 ± 0.095 | 2.52 ± 0.09 | 1.89 ± 0.09
24 | VTVFLFMLILALFVFYS [COB] | 2.32 ± 0.067 | 1.8 ± 0.042 | 2.27 ± 0.057 | 1.99 ± 0.039
25 | KGIDSVVRRRFRGNISQ [RPL32] | 2.82 ± 0.14 | 2.94 ± 0.26 |  | 2.89 ± 0.12
26 | NKENDNVPSTKFNAAPE [SNF12] | 3.38 ± 0.055 | 3.36 ± 0.068 | 3.17 ± 0.06 | 3.14 ± 0.056

Row | Sequence | protein stability index (doa10∆) | protein stability index (pdr5∆) | protein stability index (san1∆) | protein stability index (ubr1∆)
27 | AGVQGSKVSKQQAKGAF [RPL24B] | 3.08 ± 0.15 | 3.21 ± 0.11 | 3.19 ± 0.055 | 3.21 ± 0.081
28 | MSVKPIDNYITNSVRLF [SRP21] | 1.94 ± 0.076 | 1.91 ± 0.06 | 1.56 ± 0.068 | 1.63 ± 0.079
29 | WPTTHKYPLGHFVRDLG [DIS3] | 2.46 ± 0.063 | 2.58 ± 0.086 | 3.07 ± 0.08 | 2.49 ± 0.11
30 | SFSVCKIRCFRYISTLT [IRR1] | 1.61 ± 0.057 | 1.39 ± 0.055 | 1.49 ± 0.11 | 1.31 ± 0.052
31 | FEFQYLTIGVKFFMKHG [SRB5] | 1.18 ± 0.046 | 1.34 ± 0.047 | 1.21 ± 0.066 | 1.18 ± 0.035
32 | KQVQDFEENDHPNRVLE [COR1] | 3.1 ± 0.074 | 3.29 ± 0.1 | 3.19 ± 0.056 | 2.9 ± 0.065
33 | DHHPEGLSAREAVKQAA [PRE10] | 3.02 ± 0.095 | 2.53 ± 0.066 | 2.67 ± 0.082 | 2.69 ± 0.049
34 | RLYLKDQTNHIESDSIL [ECM29] | 2.8 ± 0.062 | 2.76 ± 0.06 | 2.96 ± 0.048 | 2.62 ± 0.035
35 | TLSTHSTTTSVNGSTTA [SIN4] | 2.79 ± 0.043 | 3.04 ± 0.038 | 3.114 ± 0.03 | 2.93 ± 0.031
36 | DAMVTRTPVIISLRNNH [SMD2] | 1.61 ± 0.058 | 1.85 ± 0.056 | 1.43 ± 0.12 | 1.7 ± 0.073
37 | LWSIHPSRQFDHYESNQ [SRB8] | 1.75 ± 0.074 | 2.24 ± 0.068 | 2.13 ± 0.11 | 2.64 ± 0.062
38 | IGTANYKPLIEERMGQI [SMC4] | 3.1 ± 0.087 | 3.53 ± 0.087 | 3.37 ± 0.059 | 3.27 ± 0.063
39 | NLLLSASRDKTLISWKL [ASC1] | 2.59 ± 0.071 | 2.79 ± 0.06 | 3.21 ± 0.05 | 2.2 ± 0.069
40 | ANGTVVSFIKNGEEIVG [MTR3] | 1.34 ± 0.07 | 1.6 ± 0.13 | 1.45 ± 0.21 | 1.91 ± 0.11
41 | QLVIQQGTGKKTASLGN [ISW2] | 3.2 ± 0.24 | 2.83 ± 0.21 | 3.23 ± 0.21 | 3.41 ± 0.24
42 | FKKTLRSRISSPHGLIN [SRB4] | 2.09 ± 0.049 | 2.15 ± 0.056 | 2.53 ± 0.065 | 2.15 ± 0.042
43 | KESPWKILMYQYNIPPE [RRP6] | 2.23 ± 0.07 | 2.01 ± 0.066 | 1.42 ± 0.11 | 1.57 ± 0.055
44 | GIIITDQSNVQYYLSVL [BRR2] | 3.32 ± 0.2 | 3.44 ± 0.19 | 3.07 ± 0.11 | 3.01 ± 0.13
45 | ANICLTFLESINGINWR [SIN4] | 2.54 ± 0.043 | 2.31 ± 0.046 | 2.46 ± 0.058 | 2.36 ± 0.042
46 | KGAATGKGRQSAKAELE [PRE10] | 1.24 ± 0.088 | 1.38 ± 0.079 | 1.45 ± 0.29 | 1.22 ± 0.064
47 | KLNKVDKNELQQMIITR [SIR3] | 3.12 ± 0.074 | 3.22 ± 0.07 | 3.28 ± 0.039 | 3.23 ± 0.043
48 | LSQSSSYLETLTALGKE [MED2] | 3.12 ± 0.097 | 3.04 ± 0.099 | 2.66 ± 0.084 | 2.44 ± 0.07
49 | FRKKRKFELGRQPANTK [RPS8A] | 2.88 ± 0.063 | 3.12 ± 0.066 | 3.13 ± 0.082 | 3.16 ± 0.065
50 | PAGTSLFGNNAGNTTTG [YGL172W/NUP49] | 2.98 ± 0.16 | 3.24 ± 0.088 | 2.88 ± 0.11 | 3.24 ± 0.084
51 | MFTATMTPVIEKIAAGY [PRP28] | 2.2 ± 0.13 | 1.81 ± 0.11 | 1.5 ± 0.15 | 2.35 ± 0.076
52 | KYNRYEKRHKNVPVHVS [RPS11A] | 1.61 ± 0.041 | 1.66 ± 0.044 | 1.69 ± 0.092 | 1.94 ± 0.055
